Laboratory results reported in patent EP4563596A1 (OncoSpear ApS, dated 2025).
Where a chain is given by its changes, count along the chain named. Names and notes keep the numbering of the source. Like-named read-outs stand apart in the source and are kept apart here. Each block holds one binder with its values, some of them ahead of it.

Tests used:
[1] = target: T1, CD16 V158 (FcγRIIIA) on Jurkat reporter cells (human, UniProt P08637 17-254); assay: cell-based or functional assay
[2] = target: T2, CD16 F158 (FcγRIIIA) on Jurkat reporter cells (human, UniProt P08637 17-254); assay: cell-based or functional assay
T2 sequence (P08637 17-254): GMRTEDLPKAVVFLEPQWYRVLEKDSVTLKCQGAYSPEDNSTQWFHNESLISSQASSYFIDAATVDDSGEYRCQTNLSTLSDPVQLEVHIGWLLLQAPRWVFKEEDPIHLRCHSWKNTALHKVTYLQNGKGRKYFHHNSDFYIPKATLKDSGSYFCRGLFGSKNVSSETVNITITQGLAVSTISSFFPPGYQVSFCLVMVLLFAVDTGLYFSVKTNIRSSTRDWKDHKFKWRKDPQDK

[3] = target: T1, CD16 V158 (FcγRIIIA) on Jurkat reporter …; assay: cell-based or functional assay; remark: listed apart in the source
[4] = target: T2, CD16 F158 (FcγRIIIA) on Jurkat reporter …; assay: cell-based or functional assay; remark: listed apart in the source
[5] = target: full length human CD163 on cells (human, UniProt Q86VB7 42-1156); assay: cell-based or functional assay
Chain of full length human CD163 on cells (Q86VB7 42-1156 limits assumed): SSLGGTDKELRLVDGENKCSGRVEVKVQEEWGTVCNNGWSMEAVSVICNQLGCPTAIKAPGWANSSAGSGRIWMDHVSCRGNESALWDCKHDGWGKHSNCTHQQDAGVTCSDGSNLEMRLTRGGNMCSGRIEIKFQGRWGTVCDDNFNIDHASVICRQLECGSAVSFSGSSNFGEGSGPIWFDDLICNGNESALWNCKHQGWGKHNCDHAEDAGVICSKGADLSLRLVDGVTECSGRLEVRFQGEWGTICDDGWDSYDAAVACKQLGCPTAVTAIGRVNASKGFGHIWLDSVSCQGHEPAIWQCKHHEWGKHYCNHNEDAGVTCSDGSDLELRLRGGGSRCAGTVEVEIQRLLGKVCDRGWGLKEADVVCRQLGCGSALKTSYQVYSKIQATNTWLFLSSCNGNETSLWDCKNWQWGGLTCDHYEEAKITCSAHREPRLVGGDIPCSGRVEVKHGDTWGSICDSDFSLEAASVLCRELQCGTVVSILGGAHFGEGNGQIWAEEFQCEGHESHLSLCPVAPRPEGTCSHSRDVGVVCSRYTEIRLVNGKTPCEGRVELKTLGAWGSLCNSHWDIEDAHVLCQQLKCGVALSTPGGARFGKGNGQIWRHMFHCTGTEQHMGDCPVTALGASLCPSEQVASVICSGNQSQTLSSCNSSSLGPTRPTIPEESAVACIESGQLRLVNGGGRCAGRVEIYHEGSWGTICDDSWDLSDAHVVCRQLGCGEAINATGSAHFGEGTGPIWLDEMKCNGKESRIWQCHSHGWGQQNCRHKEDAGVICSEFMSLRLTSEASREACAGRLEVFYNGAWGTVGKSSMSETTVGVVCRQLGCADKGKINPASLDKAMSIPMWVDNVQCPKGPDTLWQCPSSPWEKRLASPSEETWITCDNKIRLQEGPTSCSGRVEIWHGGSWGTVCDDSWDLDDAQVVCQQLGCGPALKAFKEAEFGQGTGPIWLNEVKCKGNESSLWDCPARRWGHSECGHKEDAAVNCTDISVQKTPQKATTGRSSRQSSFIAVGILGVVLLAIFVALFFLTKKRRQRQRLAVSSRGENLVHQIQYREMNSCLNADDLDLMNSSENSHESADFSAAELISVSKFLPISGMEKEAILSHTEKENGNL

[6] = target: T3, human CD163 domain 1-9, recombinant, immobilized on a CM5 sensor chip (human, UniProt Q86VB7 42-1050, limits assumed); assay: SPR (Biacore T200), human CD163 domain 1-9 immobilised on CM5 chip, antibody injected, 1:1 kinetic fit
T3 construct: the whole entry is named; also called immobilized CD163
T3 sequence (Q86VB7 42-1050 limits assumed): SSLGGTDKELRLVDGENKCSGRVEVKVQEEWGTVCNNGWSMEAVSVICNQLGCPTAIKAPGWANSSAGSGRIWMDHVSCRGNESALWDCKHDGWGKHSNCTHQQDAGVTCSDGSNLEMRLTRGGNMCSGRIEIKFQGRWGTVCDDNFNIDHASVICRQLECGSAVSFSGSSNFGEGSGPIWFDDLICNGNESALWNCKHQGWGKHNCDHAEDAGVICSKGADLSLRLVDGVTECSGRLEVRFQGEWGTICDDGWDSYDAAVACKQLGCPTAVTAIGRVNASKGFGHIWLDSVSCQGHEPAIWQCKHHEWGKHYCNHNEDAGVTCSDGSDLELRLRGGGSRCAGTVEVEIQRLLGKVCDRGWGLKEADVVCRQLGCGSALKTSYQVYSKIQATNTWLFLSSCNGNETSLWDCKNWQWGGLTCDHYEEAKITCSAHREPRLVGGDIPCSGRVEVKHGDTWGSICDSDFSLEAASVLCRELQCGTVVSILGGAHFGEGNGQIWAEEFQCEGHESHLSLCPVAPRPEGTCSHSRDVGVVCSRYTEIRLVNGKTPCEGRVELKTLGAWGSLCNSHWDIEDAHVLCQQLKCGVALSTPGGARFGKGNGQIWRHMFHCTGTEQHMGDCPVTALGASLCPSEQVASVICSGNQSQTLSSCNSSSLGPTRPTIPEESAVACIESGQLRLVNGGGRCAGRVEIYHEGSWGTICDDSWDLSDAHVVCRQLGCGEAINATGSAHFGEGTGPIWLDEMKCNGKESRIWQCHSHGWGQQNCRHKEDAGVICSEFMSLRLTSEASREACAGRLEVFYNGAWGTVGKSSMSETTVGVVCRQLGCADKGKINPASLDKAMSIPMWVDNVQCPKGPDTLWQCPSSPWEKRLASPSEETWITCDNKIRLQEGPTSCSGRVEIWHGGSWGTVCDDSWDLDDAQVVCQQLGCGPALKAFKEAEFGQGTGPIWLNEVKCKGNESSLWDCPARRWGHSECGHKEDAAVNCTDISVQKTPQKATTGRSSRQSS

[7] = target: T3, human CD163 domain 1-9, recombinant, …; assay: as above; remark: listed apart in the source

T1 sequence (P08637 17-254 F176V): as the sequence (P08637 17-254) above, with F160V counted along it

Relative EC50 ADCC V158 (high); target cells FlpIn293-hCD163 [1]: 0 relative (EC50 OS001/EC50 construct) | Relative EC50 ADCC F158 (low); target cells FlpIn293-hCD163 [2]: 0 relative (EC50 OS001/EC50 construct)
B1: OS000 (antibody)
heavy: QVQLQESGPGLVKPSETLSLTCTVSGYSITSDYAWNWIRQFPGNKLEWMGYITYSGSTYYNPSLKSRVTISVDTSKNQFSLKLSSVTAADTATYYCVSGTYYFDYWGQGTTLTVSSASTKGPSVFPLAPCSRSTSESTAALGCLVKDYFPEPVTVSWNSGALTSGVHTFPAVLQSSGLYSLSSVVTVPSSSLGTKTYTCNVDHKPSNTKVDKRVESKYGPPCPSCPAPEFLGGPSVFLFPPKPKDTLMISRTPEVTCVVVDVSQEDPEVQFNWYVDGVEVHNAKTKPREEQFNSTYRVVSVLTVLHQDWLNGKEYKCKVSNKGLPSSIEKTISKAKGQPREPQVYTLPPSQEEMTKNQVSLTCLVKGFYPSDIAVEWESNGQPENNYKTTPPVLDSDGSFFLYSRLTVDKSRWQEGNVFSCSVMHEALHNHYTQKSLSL
light: DIVMTQSPSSLSASVGDRVTITCRASQSVSSDVAWFQQKPGKSPKPLIYYASNRYSGVPSRFSGSGSGTDFTLTISSLQAEDFAVYFCGQDYTSPRTFGGGTKLEIKRTVAAPSVFIFPPSDEQLKSGTASVVCLLNNFYPREAKVQWKVDNALQSGNSQESVTEQDSKDSTYSLSSTLTLSKADYEKHKVYACEVTHQGLSSPVTKSFNRGEC

Relative EC50 ADCC V158 (high); target cells FlpIn293-hCD163 [1]: 0.9 relative (EC50 OS001/EC50 construct) | Relative EC50 ADCC F158 (low); target cells FlpIn293-hCD163 [2]: 1.5 relative (EC50 OS001/EC50 construct)
B2: OS002 (antibody, human IgG1, kappa)
heavy: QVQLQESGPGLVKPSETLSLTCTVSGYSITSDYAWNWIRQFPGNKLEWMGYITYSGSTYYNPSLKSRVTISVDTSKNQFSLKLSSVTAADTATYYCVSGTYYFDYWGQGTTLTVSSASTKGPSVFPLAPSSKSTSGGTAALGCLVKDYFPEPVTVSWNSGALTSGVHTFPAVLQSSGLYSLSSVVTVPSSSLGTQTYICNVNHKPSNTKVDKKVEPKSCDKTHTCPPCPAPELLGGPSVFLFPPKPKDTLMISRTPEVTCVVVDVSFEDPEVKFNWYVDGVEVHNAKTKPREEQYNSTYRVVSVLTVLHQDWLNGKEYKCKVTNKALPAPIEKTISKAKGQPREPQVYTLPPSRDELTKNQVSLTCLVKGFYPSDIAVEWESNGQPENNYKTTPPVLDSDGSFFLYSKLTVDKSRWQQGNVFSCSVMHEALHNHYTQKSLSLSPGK
light: B1 light

Relative EC50 ADCC V158 (high); target cells FlpIn293-hCD163 [1]: 7.6 relative (EC50 OS001/EC50 construct) | Relative EC50 ADCC F158 (low); target cells FlpIn293-hCD163 [2]: 7 relative (EC50 OS001/EC50 construct) | Relative EC50 ADCC (CD16 V158); target cells M2c macrophages [3]: 23 relative (normalized to OS001) | Relative EC50 ADCC (CD16 F158); target cells M2c macrophages [4]: 12 relative (normalized to OS001)
B3: OS009 (antibody, human IgG1, kappa)
heavy: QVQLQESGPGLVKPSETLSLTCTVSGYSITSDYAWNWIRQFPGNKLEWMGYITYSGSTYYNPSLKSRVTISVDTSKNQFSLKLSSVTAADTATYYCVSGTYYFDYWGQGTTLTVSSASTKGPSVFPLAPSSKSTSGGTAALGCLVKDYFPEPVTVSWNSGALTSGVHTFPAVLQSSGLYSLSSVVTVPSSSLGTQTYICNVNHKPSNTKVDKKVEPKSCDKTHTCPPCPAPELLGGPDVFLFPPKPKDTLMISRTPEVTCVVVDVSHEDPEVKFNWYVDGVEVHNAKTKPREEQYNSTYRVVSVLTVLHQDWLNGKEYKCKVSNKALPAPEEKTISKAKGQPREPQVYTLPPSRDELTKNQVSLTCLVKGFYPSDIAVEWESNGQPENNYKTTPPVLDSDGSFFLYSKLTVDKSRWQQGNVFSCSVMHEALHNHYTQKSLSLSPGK
light: B1 light
EC50 of PBMC mediated cytotoxicity in CD163 expressing macrophages [5]: 2.8 ng/mL

Kd [6]: 0.95 nM | koff [6]: 0.00049 s⁻¹ | kon [6]: 520000 M⁻¹ s⁻¹
B4: OS022 (antibody, human IgG1, kappa)
heavy: not shown
light: B1 light
modifications: afucosylated glycan (GlymaxX expression)
notes: IgG1, HC D72E, afucosylated; also called IgG1 HC D72E afucosylated

Relative EC50 ADCC V158 (high); target cells FlpIn293-hCD163 [1]: 5.9 relative (EC50 OS001/EC50 construct) | Relative EC50 ADCC F158 (low); target cells FlpIn293-hCD163 [2]: 2.5 relative (EC50 OS001/EC50 construct) | Relative EC50 ADCC (CD16 V158); target cells M2c macrophages [3]: 26 relative (normalized to OS001) | Relative EC50 ADCC (CD16 F158); target cells M2c macrophages [4]: 71 relative (normalized to OS001)
B5: OS006 (antibody, human IgG1, kappa)
heavy: QVQLQESGPGLVKPSETLSLTCTVSGYSITSDYAWNWIRQFPGNKLEWMGYITYSGSTYYNPSLKSRVTISVDTSKNQFSLKLSSVTAADTATYYCVSGTYYFDYWGQGTTLTVSSASTKGPSVFPLAPSSKSTSGGTAALGCLVKDYFPEPVTVSWNSGALTSGVHTFPAVLQSSGLYSLSSVVTVPSSSLGTQTYICNVNHKPSNTKVDKKVEPKSCDKTHTCPPCPAPELLGGPDVFLFPPKPKDTLMISRTPEVTCVVVDVSHEDPEVKFNWYVDGVEVHNAKTKPREEQYNSTYRVVSVLTVLHQDWLNGKEYKCKVSNKALPLPEEKTISKAKGQPREPQVYTLPPSRDELTKNQVSLTCLVKGFYPSDIAVEWESNGQPENNYKTTPPVLDSDGSFFLYSKLTVDKSRWQQGNVFSCSVMHEALHNHYTQKSLSLSPGK
light: B1 light

Relative EC50 ADCC V158 (high); target cells FlpIn293-hCD163 [1]: 1.6 relative (EC50 OS001/EC50 construct) | Relative EC50 ADCC F158 (low); target cells FlpIn293-hCD163 [2]: 3.5 relative (EC50 OS001/EC50 construct)
B6: OS004 (antibody, human IgG1, kappa)
heavy: QVQLQESGPGLVKPSETLSLTCTVSGYSITSDYAWNWIRQFPGNKLEWMGYITYSGSTYYNPSLKSRVTISVDTSKNQFSLKLSSVTAADTATYYCVSGTYYFDYWGQGTTLTVSSASTKGPSVFPLAPSSKSTSGGTAALGCLVKDYFPEPVTVSWNSGALTSGVHTFPAVLQSSGLYSLSSVVTVPSSSLGTQTYICNVNHKPSNTKVDKKVEPKSCDKTHTCPPCPAPELLGGPSVFLFPPKPKDTLMISRTPEVTCVVVDVSHEDPEVKFNWYVDGVEVHNAKTKPREEQYNYARVVSVLTVLHQDWLNGKEYKCKVSNKALPAPIAATISKAKGQPREPQVYTLPPSRDELTKNQVSLTCLVKGFYPSDIAVEWESNGQPENNYKTTPPVLDSDGSFFLYSKLTVDKSRWQQGNVFSCSVMHEALHNHYTQKSLSLSPGK
light: B1 light

Relative EC50 ADCC V158 (high); target cells FlpIn293-hCD163 [1]: 4.5 relative (EC50 OS001/EC50 construct) | Relative EC50 ADCC F158 (low); target cells FlpIn293-hCD163 [2]: 3.2 relative (EC50 OS001/EC50 construct)
B7: OS008 (antibody, human IgG1, kappa)
heavy: B5 heavy with G235A
light: B1 light

Relative EC50 ADCC V158 (high); target cells FlpIn293-hCD163 [1]: 2.2 relative (EC50 OS001/EC50 construct) | Relative EC50 ADCC F158 (low); target cells FlpIn293-hCD163 [2]: 5.4 relative (EC50 OS001/EC50 construct) | Relative EC50 ADCC (CD16 V158); target cells M2c macrophages [3]: 23 relative (normalized to OS001) | Relative EC50 ADCC (CD16 F158); target cells M2c macrophages [4]: 13 relative (normalized to OS001)
B8: OS005 (antibody, human IgG1, kappa)
heavy: B5 heavy with L234V, D238S, F242L, R291P, Y299L, L329A, E331I, P395L
light: B1 light

Relative EC50 ADCC V158 (high); target cells FlpIn293-hCD163 [1]: 3.7 relative (EC50 OS001/EC50 construct) | Relative EC50 ADCC F158 (low); target cells FlpIn293-hCD163 [2]: 4 relative (EC50 OS001/EC50 construct)
B9: OS016 (antibody, human IgG1, kappa)
heavy: B5 heavy with G235A, D238S, S266E, H267F, S323T, L329A
light: B1 light

Relative EC50 ADCC V158 (high); target cells FlpIn293-hCD163 [1]: 4 relative (EC50 OS001/EC50 construct) | Relative EC50 ADCC F158 (low); target cells FlpIn293-hCD163 [2]: 5.6 relative (EC50 OS001/EC50 construct)
B10: OS007 (antibody, human IgG1, kappa)
heavy: B5 heavy with G235A, L329A
light: B1 light

Relative EC50 ADCC V158 (high); target cells FlpIn293-hCD163 [1]: 1.4 relative (EC50 OS001/EC50 construct) | Relative EC50 ADCC F158 (low); target cells FlpIn293-hCD163 [2]: 1.2 relative (EC50 OS001/EC50 construct)
B11: OS010 (antibody, human IgG1, kappa)
heavy: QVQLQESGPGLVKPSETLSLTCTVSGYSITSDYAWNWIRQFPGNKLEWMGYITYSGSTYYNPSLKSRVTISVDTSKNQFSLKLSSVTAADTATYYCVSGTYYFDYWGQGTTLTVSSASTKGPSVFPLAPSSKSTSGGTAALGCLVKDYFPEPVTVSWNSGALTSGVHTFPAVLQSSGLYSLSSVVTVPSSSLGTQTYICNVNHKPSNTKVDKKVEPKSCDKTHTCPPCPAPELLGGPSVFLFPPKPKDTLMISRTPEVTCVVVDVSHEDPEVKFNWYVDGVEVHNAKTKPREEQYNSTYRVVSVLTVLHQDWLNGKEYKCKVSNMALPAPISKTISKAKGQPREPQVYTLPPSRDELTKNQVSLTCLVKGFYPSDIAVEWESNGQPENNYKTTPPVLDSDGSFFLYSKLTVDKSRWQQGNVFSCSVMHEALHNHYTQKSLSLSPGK
light: B1 light

Kd [7]: 0.51 nM | koff [7]: 0.00033 s⁻¹ | kon [7]: 650000 M⁻¹ s⁻¹
B12: OS018 (antibody, human IgG1, kappa)
heavy: not shown
light: B1 light
notes: also called IgG1 HC D72E

Relative EC50 ADCC V158 (high); target cells FlpIn293-hCD163 [1]: 1.5 relative (EC50 OS001/EC50 construct) | Relative EC50 ADCC F158 (low); target cells FlpIn293-hCD163 [2]: 1.3 relative (EC50 OS001/EC50 construct)
B13: OS003 (antibody, human IgG1, kappa)
heavy: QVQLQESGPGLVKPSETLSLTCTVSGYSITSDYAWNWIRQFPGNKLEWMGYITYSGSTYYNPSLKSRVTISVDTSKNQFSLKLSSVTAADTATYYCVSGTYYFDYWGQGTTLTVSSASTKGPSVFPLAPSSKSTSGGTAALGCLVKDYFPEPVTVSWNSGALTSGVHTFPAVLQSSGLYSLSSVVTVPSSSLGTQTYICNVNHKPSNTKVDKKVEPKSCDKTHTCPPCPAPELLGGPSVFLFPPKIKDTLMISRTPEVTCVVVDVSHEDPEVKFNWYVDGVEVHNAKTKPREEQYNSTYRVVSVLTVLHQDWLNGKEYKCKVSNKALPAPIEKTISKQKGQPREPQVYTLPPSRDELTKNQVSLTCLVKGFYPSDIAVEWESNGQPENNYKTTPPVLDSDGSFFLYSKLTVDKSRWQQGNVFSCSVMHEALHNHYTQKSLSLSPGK
light: B1 light

Kd [7]: 0.41 nM | koff [7]: 0.00021 s⁻¹ | kon [7]: 520000 M⁻¹ s⁻¹
B14: OS019 (antibody, human IgG1, kappa)
heavy: not shown
light: B1 light with G89Q
notes: also called IgG1 LC G89Q

Kd [7]: 0.47 nM | koff [7]: 0.00022 s⁻¹ | kon [7]: 470000 M⁻¹ s⁻¹
B15: OS020 (antibody, human IgG1, kappa)
heavy: not shown
light: B1 light with G89Q
notes: IgG1, HC D72E and LC G89Q, wild type glycosylation; also called IgG1 HC D72E LC G89Q

Relative EC50 ADCC V158 (high); target cells FlpIn293-hCD163 [1]: 11.2 relative (EC50 OS001/EC50 construct) | Relative EC50 ADCC F158 (low); target cells FlpIn293-hCD163 [2]: 17.6 relative (EC50 OS001/EC50 construct) | Relative EC50 ADCC (CD16 V158); target cells M2c macrophages [3]: 39 relative (normalized to OS001) | Relative EC50 ADCC (CD16 F158); target cells M2c macrophages [4]: 111 relative (normalized to OS001)
B16: OS017 (antibody, human IgG1, kappa)
heavy: not shown
light: B1 light
modifications: afucosylated glycan (GlymaxX expression)
EC50 of PBMC mediated cytotoxicity in CD163 expressing macrophages [5]: 2.6 ng/mL

Relative EC50 ADCC V158 (high); target cells FlpIn293-hCD163 [1]: 1 relative (EC50 OS001/EC50 construct) | Relative EC50 ADCC F158 (low); target cells FlpIn293-hCD163 [2]: 1 relative (EC50 OS001/EC50 construct) | Relative EC50 ADCC (CD16 V158); target cells M2c macrophages [3]: 1 relative (normalized to OS001) | Relative EC50 ADCC (CD16 F158); target cells M2c macrophages [4]: 1 relative (normalized to OS001)
B17: OS001 (antibody, human IgG1, kappa)
heavy: not shown
light: B1 light

Kd [6]: 0.8 nM | koff [6]: 0.00037 s⁻¹ | kon [6]: 460000 M⁻¹ s⁻¹
B18: OS023 (antibody, human IgG1, kappa)
heavy: not shown
light: B1 light with G89Q
modifications: afucosylated glycan (GlymaxX expression)
notes: IgG1, HC D72E and LC G89Q, afucosylated; also called IgG1 HC D72E LC G89Q afucosylated
